Consider one substance from publication doi:10.1101/2023.08.08.552318.

This assay addresses Hemiselmis andersenii phycobiliprotein α subunit Haα^OB1 (open-braced form) (Hemiselmis andersenii). Description: crystal structure.

Usually stoichiometry N stands for a count of units in the complex or per binding partner. Regarding “Hemiselmis andersenii phycobiliprotein α subunit Haα^OB1 (open-braced form) (natural protein)”, the stoichiometry N was found to be 2.
